This data set has as its system Saccharomyces cerevisiae. Briefly: protein stability index of tFT-peptide fusion (C-terminal peptide) (PSI (0-1 scale)); higher = more stable (slower turnover). Conditions: temperature: 30 C. The protocol:
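MPS profiling in S. cerevisiae of the yeast C-terminome library: the last 12 aa of each annotated ORF are fused to the C-terminus of a sfGFP-mCherry timer, after a GGGS linker. Cells are FACS-sorted into 8 mCherry/sfGFP bins and deep-sequenced. PSI runs from 0 (unstable) to 1 (stable); wild type and das1Δ backgrounds, two technical replicates each.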

Setting [1] is: genetic background: das1 deletion.

± gives the standard deviation of the averaged measurements.

Among the data in the supplement of paper PMC10724198 are protein stability index values, retold here.

As to SQGNVYLPGVAW [NOC4 C-terminal 12 aa], the protein stability index runs as follows: under setting [1], 0.707 ± 0.009; (genetic background: wild type) 0.738 ± 0.081.
For SQLLNLLQDLDT [ENV7 C-terminal 12 aa] the same measures were 0.696 ± 0.02 and 0.722 ± 0.011.
For SRFRTNIAFITQ [YJL015C C-terminal 12 aa] the same measures were 0.71 ± 0.012 and 0.70081 ± 0.00066.
The matching figures for SRGHDLASEYPL [ERS1 C-terminal 12 aa]: 0.706 ± 0.015 and 0.682 ± 0.0085.
Consider SRLFSEEKSSVH [YJL150W C-terminal 12 aa], for which the protein stability index came to 0.7239 ± 0.0066 under setting [1] and 0.694 ± 0.024 (genetic background: wild type).
For SRQFEQNLQIND [SLF1 C-terminal 12 aa], the protein stability index runs as follows: under setting [1], 0.7394 ± 0.0052; (genetic background: wild type) 0.676 ± 0.013.
In the case of SRSGPDSTNIKL [MPP10 C-terminal 12 aa], the protein stability index reads like this: under setting [1], 0.688 ± 0.011; (genetic background: wild type) 0.667 ± 0.0034.
For SSIFVRVYKFWC [BAP3 C-terminal 12 aa] the same measures were 0.698 ± 0.018 and 0.716 ± 0.096.
Consider SSNFASNIFSLF [YBR089W C-terminal 12 aa], for which the protein stability index was 0.7346 ± 0.0049 under setting [1] and 0.448 ± 0.01 (genetic background: wild type).
The matching figures for SSQQLTLRPPLG [YGL109W C-terminal 12 aa]: 0.6922 ± 0.0068 and 0.669 ± 0.0086.
For “SSSSNFLEESSS [YER148W-A C-terminal 12 aa]” the same measures were 0.7024 ± 0.00079 and 0.6861 ± 0.006.
Take SSTTALDALNKE [TGL1 C-terminal 12 aa]: the protein stability index stood at 0.696 ± 0.0083 under setting [1] and 0.684 ± 0.048 (genetic background: wild type).
For SSVKNSVEMTDF [TDA11 C-terminal 12 aa] the same measures were 0.7099 ± 0.0049 and 0.698 ± 0.012.
For SSYNSNVGHIKN [WHI3 C-terminal 12 aa] the same measures were 0.705 ± 0.019 and 0.736 ± 0.0042.
STIQTTSVDPTT [BSC1 C-terminal 12 aa] yielded a protein stability index under setting [1] of 0.7104 ± 0.0039 and a protein stability index (genetic background: wild type) of 0.682 ± 0.036.
The matching figures for STIRRLREMVEA [RPL43A C-terminal 12 aa]: 0.547 ± 0.013 and 0.539 ± 0.028.
As to STKILETSANYL [RVB1 C-terminal 12 aa], the protein stability index turned out to be 0.69 ± 0.019 under setting [1] and 0.679 ± 0.047 (genetic background: wild type).
For STLSRPFTWEEI [ATG34 C-terminal 12 aa] the same measures were 0.715 ± 0.031 and 0.75193 ± 0.00031.
The matching figures for SVHLDQLLDGKE [CSI2 C-terminal 12 aa]: 0.714 ± 0.0086 and 0.669 ± 0.013.
On to SVLQQTSKEPFW [HOS4 C-terminal 12 aa], for which the protein stability index by setting is: under setting [1], 0.732 ± 0.016; (genetic background: wild type) 0.6975 ± 0.0026.
The matching figures for SYEIFEGSKKVM [CET1 C-terminal 12 aa]: 0.699 ± 0.033 and 0.6785 ± 0.0039.
For SYKSNQPSSQNT [MDM36 C-terminal 12 aa] the same measures were 0.672 ± 0.017 and 0.675 ± 0.0096.
For TAAQMLEVQNEA [ARI1 C-terminal 12 aa] the same measures were 0.6837 ± 0.0021 and 0.7016 ± 0.0034.
As for TALDYVSEKKKN [STE24 C-terminal 12 aa], the protein stability index runs as follows: under setting [1], 0.679 ± 0.012; (genetic background: wild type) 0.7093 ± 0.0027.
The matching figures for TDGPNEKWLPDY [SKS1 C-terminal 12 aa]: 0.7099 ± 0.0056 and 0.712 ± 0.046.
Take TDISGEKNSSKI [RLM1 C-terminal 12 aa]: the protein stability index came to 0.7039 ± 0.0055 under setting [1] and 0.756 ± 0.031 (genetic background: wild type).
The matching figures for TDTTLIYDIDLE [SPT8 C-terminal 12 aa]: 0.709 ± 0.036 and 0.718 ± 0.039.
With TEEVEKAISKSQ [YFH1 C-terminal 12 aa], the protein stability index was 0.7018 ± 0.0027 under setting [1] and 0.7208 ± 0.0067 (genetic background: wild type).
The matching figures for TESENDALDDLL [TLG2 C-terminal 12 aa]: 0.714 ± 0.013 and 0.707 ± 0.0078.
For TGMGAAAIFIKE [POT1 C-terminal 12 aa] the same measures were 0.688 ± 0.04 and 0.752 ± 0.049.
The matching figures for TIDFFDPVKLKR [YEL025C C-terminal 12 aa]: 0.724 ± 0.008 and 0.755 ± 0.015.
On to TKDGEVVKESKK [PET117 C-terminal 12 aa], for which the protein stability index under setting [1] worked out at 0.677 ± 0.034 and the protein stability index (genetic background: wild type) turned out to be 0.676 ± 0.027.
Take TKEEIMHGLQAK [RPN5 C-terminal 12 aa]: the protein stability index worked out at 0.682 ± 0.024 under setting [1] and 0.728 ± 0.01 (genetic background: wild type).
Regarding TLEDLGAKVSLE [MNP1 C-terminal 12 aa], the protein stability index is, setting by setting: under setting [1], 0.696 ± 0.011; (genetic background: wild type) 0.711 ± 0.031.
Consider TLNFEEARKEYV [YDR509W C-terminal 12 aa], for which the protein stability index is, setting by setting: under setting [1], 0.713 ± 0.016; (genetic background: wild type) 0.728 ± 0.035.
The matching figures for TNGNKSCLYWRV [FMP25 C-terminal 12 aa]: 0.678 ± 0.012 and 0.66 ± 0.044.
On to TNQASPHHIFRG [ORA1 C-terminal 12 aa], for which the protein stability index under setting [1] came out at 0.702 ± 0.016 and the protein stability index (genetic background: wild type) was 0.752 ± 0.038.
In the case of TQEMENTKLAES [GIS1 C-terminal 12 aa], the protein stability index under setting [1] stood at 0.692 ± 0.01 and the protein stability index (genetic background: wild type) was determined as 0.757 ± 0.0079.
For TRSSGDDQVFVF [PGA3 C-terminal 12 aa] the same measures were 0.707 ± 0.0082 and 0.707 ± 0.012.
The matching figures for TSTITTTITMTL [SHE10 C-terminal 12 aa]: 0.636 ± 0.041 and 0.652 ± 0.042.
Regarding TTDNVTVMVVFL [PTC1 C-terminal 12 aa], the protein stability index reads like this: under setting [1], 0.489 ± 0.0077; (genetic background: wild type) 0.5071 ± 0.0035.
The matching figures for TVFASNSFGVYV [OST5 C-terminal 12 aa]: 0.669 ± 0.02 and 0.709 ± 0.06.
The matching figures for TVGTGLITRIIE [TUF1 C-terminal 12 aa]: 0.694 ± 0.032 and 0.6945 ± 0.0066.
On to TVHQLRDRGFDI [ENV9 C-terminal 12 aa], for which the protein stability index came out at 0.73 ± 0.0077 under setting [1] and 0.717 ± 0.014 (genetic background: wild type).
The matching figures for TVIALLVGWIYY [SCS22 C-terminal 12 aa]: 0.241 ± 0.01 and 0.255 ± 0.0075.
The matching figures for TVSNETKEARET [SPT14 C-terminal 12 aa]: 0.6843 ± 0.0053 and 0.6715 ± 0.0044.
For TWFKYFKWLDMF [MRX3 C-terminal 12 aa] the same measures were 0.7723 ± 0.0025 and 0.217 ± 0.0084.
Consider TYMLNGPAGLLM [YNL165W C-terminal 12 aa], for which the protein stability index amounted to 0.6979 ± 0.0034 under setting [1] and 0.684 ± 0.024 (genetic background: wild type).
For TYSTLINIDVSL [NIC96 C-terminal 12 aa] the same measures were 0.702 ± 0.059 and 0.688 ± 0.046.
The matching figures for VAEKIPENETTH [ISW1 C-terminal 12 aa]: 0.6915 ± 0.0016 and 0.679 ± 0.031.
The matching figures for VAPKPKTKQEKK [WRS1 C-terminal 12 aa]: 0.684 ± 0.0071 and 0.658 ± 0.022.
In the case of VDGFNDALQLSK [HEM14 C-terminal 12 aa], the protein stability index runs as follows: under setting [1], 0.685 ± 0.022; (genetic background: wild type) 0.708 ± 0.026.
The matching figures for VDMTSIFDFMLN [POL1 C-terminal 12 aa]: 0.7408 ± 0.0055 and 0.709 ± 0.025.
For VDTILDEDFLLR [APC11 C-terminal 12 aa] the same measures were 0.715 ± 0.016 and 0.712 ± 0.013.
The matching figures for VEHRYHKSVSRL [YBR012C C-terminal 12 aa]: 0.816 ± 0.046 and 0.759 ± 0.053.
For VENEDEPLFIER [INP51 C-terminal 12 aa], the protein stability index came out at 0.708 ± 0.0089 under setting [1] and 0.683 ± 0.0088 (genetic background: wild type).
The matching figures for VENTTVDFNYDM [YLR179C C-terminal 12 aa]: 0.69 ± 0.016 and 0.681 ± 0.03.
The matching figures for VFKSKCKKIYIG [DGR1 C-terminal 12 aa]: 0.7125 ± 0.0067 and 0.457 ± 0.04.
The matching figures for VFNNISLNFYIQ [YLL020C C-terminal 12 aa]: 0.782 ± 0.059 and 0.692 ± 0.0021.
With VGFCGLYYYFRK [YPR195C C-terminal 12 aa], the protein stability index runs as follows: under setting [1], 0.647 ± 0.018; (genetic background: wild type) 0.648 ± 0.015.
The matching figures for VIIKVFIRRSDA [YJL086C C-terminal 12 aa]: 0.515 ± 0.024 and 0.461 ± 0.014.
For VIPHRGKKPVQN [AUS1 C-terminal 12 aa] the same measures were 0.68051 ± 0.00019 and 0.681 ± 0.037.
For VKDIHGRIPEML [AXL2 C-terminal 12 aa] the same measures were 0.6952 ± 0.0058 and 0.694 ± 0.015.
As to VKEYYKKSDVGR [ATG9 C-terminal 12 aa], the protein stability index under setting [1] is 0.7026 ± 0.004 and the protein stability index (genetic background: wild type) was 0.66 ± 0.011.
For VKFVYRQRIALV [YLL037W C-terminal 12 aa] the same measures were 0.577 ± 0.0095 and 0.195 ± 0.0078.
For VKSLQVKKSHLK [CDC12 C-terminal 12 aa] the same measures were 0.704 ± 0.0088 and 0.742 ± 0.13.
On to VLGFFKRRSMKI [FRK1 C-terminal 12 aa], for which the protein stability index under setting [1] was 0.72 ± 0.014 and the protein stability index (genetic background: wild type) worked out at 0.678 ± 0.018.
